From the supplement of paper PMC10724198
± gives the standard deviation of the averaged measurements.

The sequences below were run on Saccharomyces cerevisiae (assay: protein stability index of tFT-peptide fusion (C-terminal peptide) (PSI (0-1 scale)); higher = more stable (slower turnover)). Settings: genetic background: wild type; temperature: 30 C.
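Also: PSI is a weighted mean of sequencing reads over stability bins, variants kept only with over 10 reads, mCherry proximal and sfGFP distal, peptide attached via GGGS linker.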

| Sequence | protein stability index |
| --- | --- |
| LLLPPLPPLSLS | 0.7135 ± 0.0058 |
| LLLPPLSSSPPP | 0.7111 ± 0.0032 |
| LLLSPAFFSCFL | 0.638 ± 0.095 |
| LLMPRTKEEYDN | 0.601 ± 0.24 |
| LLNLQEEADLPS | 0.724 ± 0.035 |
| LLPALPLPLSLT | 0.64 ± 0.013 |
| LLPLLYKWLGLR | 0.681 ± 0.025 |
| LLPLPPLLRLPL | 0.5803 ± 0.001 |
| LLPLPPPPLFLP | 0.705 ± 0.011 |
| LLPPFPPSSPAF | 0.708 ± 0.036 |
| LLPPLPLSPSAP | 0.685 ± 0.096 |
| LLPPPPPPTLYP | 0.699 ± 0.016 |
| LLPPPPSPPTPS | 0.686 ± 0.035 |
| LLPSPSPASSPS | 0.74 ± 0.1 |
| LLPSSPRTFPLL | 0.6731 ± 0.0008 |
| LLPVFFPCFPLP | 0.696 ± 0.069 |
| LLRFVGVRVRGA | 0.646 ± 0.094 |
| LLRLMSPTPFTP | 0.703 ± 0.037 |
| LLRLPPPSPRYH | 0.782 ± 0.019 |
| LLRPLRRLDVSW | 0.632 ± 0.0065 |
| LLRPPARPPHPR | 0.746 ± 0.008 |
| LLRVYNQNGERN | 0.734 ± 0.044 |
| LLRWEPNYTENL | 0.796 ± 0.028 |
| LLRYAPSALPLP | 0.6683 ± 0.0031 |
| LLSAPFRSFFTL | 0.5548 ± 0.0046 |
| LLSAVVDHTHLQ | 0.664 ± 0.07 |

| Sequence | protein stability index |
| --- | --- |
| LLSCVRSHPDAP | 0.702 ± 0.073 |
| LLSLATPHPSAL | 0.714 ± 0.045 |
| LLSLMCYCWFGV | 0.5088 ± 0.0011 |
| LLSPDAALGRLF | 0.692 ± 0.025 |
| LLSPFLPPPLFV | 0.563 ± 0.019 |
| LLSPPPTPFPLP | 0.666 ± 0.061 |
| LLSRCAGLMWSF | 0.679 ± 0.0098 |
| LLSRQEWMTGRS | 0.673 ± 0.031 |
| LLTWENWVVPRL | 0.738 ± 0.053 |
| LLVLFRWSGIPG | 0.552 ± 0.034 |
| LLVLGHVCAANF | 0.601 ± 0.0094 |
| LLVMRGMRGCGT | 0.681 ± 0.056 |
| LLVMRRHRFLRL | 0.624 ± 0.051 |
| LLVNLNINYFKR | 0.689 ± 0.018 |
| LLWCPLRSIGLS | 0.696 ± 0.044 |
| LLWPSPAISLPT | 0.722 ± 0.021 |
| LMAGPRLCSPLR | 0.634 ± 0.033 |
| LMCGPARSPLTT | 0.6701 ± 0.00098 |
| LMFPLPLRSFPF | 0.6931 ± 0.0014 |
| LNHQSSVHLNTP | 0.732 ± 0.034 |
| LNTTKTFCSPCL | 0.692 ± 0.081 |
| LPACVVVRYCRF | 0.637 ± 0.12 |
| LPAPLHPPPSQP | 0.638 ± 0.014 |
| LPAPPAPLTFPG | 0.687 ± 0.021 |
| LPASLPPPPPPY | 0.756 ± 0.058 |
| LPCGPRGLTRPP | 0.661 ± 0.0091 |

| Sequence | protein stability index |
| --- | --- |
| LPDSYAVVPPTS | 0.642 ± 0.068 |
| LPDVFLSSFFCL | 0.709 ± 0.027 |
| LPFCLPAPLPPP | 0.708 ± 0.04 |
| LPFFFPRLFSPP | 0.691 ± 0.061 |
| LPFPSPLPSPPP | 0.702 ± 0.035 |
| LPGSVLLFPSFS | 0.747 ± 0.035 |
| LPHLFPSTPPAS | 0.723 ± 0.025 |
| LPHSYFCPTFFF | 0.675 ± 0.019 |
| LPIKRLPLPTVP | 0.682 ± 0.015 |
| LPIKRLWKGLHG | 0.652 ± 0.1 |
| LPLGSTVVSGES | 0.632 ± 0.034 |
| LPLHHYAHKFDL | 0.746 ± 0.1 |
| LPLIISTNYTPD | 0.723 ± 0.11 |
| LPLPLPWHSCPP | 0.721 ± 0.029 |
| LPLPVPPPPLPS | 0.654 ± 0.034 |
| LPLRYFSFPDPF | 0.6949 ± 0.0035 |
| LPPAPAPPQCST | 0.675 ± 0.052 |
| LPPCAPPLPPSS | 0.706 ± 0.067 |
| LPPFFPLLSPPF | 0.664 ± 0.031 |
| LPPFPRPPPPSP | 0.719 ± 0.029 |
| LPPGIPLRSSPP | 0.683 ± 0.022 |
| LPPLLPPFHPPR | 0.701 ± 0.06 |
| LPPLPPRSPPPP | 0.731 ± 0.02 |
| LPPLRVIANIRG | 0.659 ± 0.019 |
| LPPPAPPSSFPP | 0.661 ± 0.056 |
| LPPPIPPPLSLA | 0.703 ± 0.013 |

| Sequence | protein stability index |
| --- | --- |
| LPPPLPPSLRLR | 0.602 ± 0.083 |
| LPPPPLTTLLHT | 0.604 ± 0.043 |
| LPPPPRPLPRSL | 0.732 ± 0.018 |
| LPPPRPTRSPTH | 0.617 ± 0.034 |
| LPPRIPRPDVSF | 0.72 ± 0.0075 |
| LPPRPPESLHLP | 0.724 ± 0.03 |
| LPPRPPRRPESP | 0.663 ± 0.055 |
| LPPSLPTHLSHP | 0.7629 ± 0.0041 |
| LPPSPPPFPPLP | 0.642 ± 0.011 |
| LPPTHPPPPPAL | 0.7 ± 0.045 |
| LPPVLPLLPSPP | 0.692 ± 0.044 |
| LPQVKLGRIYTY | 0.683 ± 0.032 |
| LPQVYSGIMRFV | 0.6243 ± 0.0036 |
| LPRFAPPNPALP | 0.658 ± 0.071 |
| LPRGLRAISCVE | 0.569 ± 0.024 |
| LPRPPPPPPPPP | 0.759 ± 0.042 |
| LPRSLSGCGAGV | 0.711 ± 0.015 |
| LPRSSGSTTPYP | 0.688 ± 0.025 |
| LPSKSTVALGPL | 0.633 ± 0.046 |
| LPSPSATPPRPP | 0.634 ± 0.034 |
| LPSPSPPPPLLL | 0.677 ± 0.015 |
| LPSPSPPPPLLP | 0.743 ± 0.022 |
| LPSPSSLPAPPV | 0.677 ± 0.031 |
